Data as given in patent US20170355730A1.
Starred links: 1 amine or outer side, 2 acyl side, 3 side chain; linkers in the order of their positions; H or OH if unused. Non-standard residues stand in square brackets, D forms with d. Primed or numbered codes have the meaning given here. No end group written: not given here. Trimesoyl = O=C(c1cc(C(=O)[*:2])cc(C(=O)[*:3])c1)[*:1]; Phe(3,4-F2) = N[C@@H](Cc1ccc(F)c(F)c1)C(=O)O; Phe(4-Br) = N[C@@H](Cc1ccc(Br)cc1)C(=O)O; Phe(4-Cl) = N[C@@H](Cc1ccc(Cl)cc1)C(=O)O; Phe(4-F) = N[C@@H](Cc1ccc(F)cc1)C(=O)O; dPhe(4-F) = N[C@H](Cc1ccc(F)cc1)C(=O)O; 2Nal = N[C@@H](Cc1ccc2ccccc2c1)C(=O)O; Pip′ = L-homoproline (pipecolyl); Dap = NC[C@H](N)C(=O)O

B1: peptide 32 (Table 18) (peptide)
peptide: Trimesoyl-[dF][Phe(4-Br)][dT][Pip′][2Nal]RA[dF][Dap]F[2Nal]RRRR[Dap]K
modifications: linker (positions not given here) via Trimesoyl; not fully specified (C-terminus, bridges); printed as bicyclo[Tm-(D-Phe-4-BrPhe-D-Thr-Pip-Nal-Arg-Ala-D-Phe)-Dap-(Phe-Nal-Arg-Arg-Arg-Arg-Dap)]-Lys
B2: peptide 31 (Table 18) (peptide)
peptide: Trimesoyl-[dF]H[dT][Pip′][2Nal]RA[dF][Dap]F[2Nal]RRRR[Dap]K
modifications: linker (positions not given here) via Trimesoyl; not fully specified (C-terminus, bridges); printed as bicyclo[Tm-(D-Phe-His-D-Thr-Pip-Nal-Arg-Ala-D-Phe)-Dap-(Phe-Nal-Arg-Arg-Arg-Arg-Dap)]-Lys
B3: peptide 37 (Table 18) (peptide)
peptide: Trimesoyl-[dPhe(4-F)][Phe(4-F)][dT][Pip′][2Nal]RA[dF][Dap]F[2Nal]RRRR[Dap]K
modifications: linker (positions not given here) via Trimesoyl; not fully specified (bridges); printed as bicyclo[Tm-(D-4-Fpa-Fpa-D-Thr-Pip-Nal-Arg-Ala-D-Phe)-Dap-(Phe-Nal-Arg-Arg-Arg-Arg-Dap)]-Lys
B4: peptide 29 (Table 18) (peptide)
peptide: Trimesoyl-[dF][Phe(3,4-F2)][dT][Pip′][2Nal]RA[dF][Dap]F[2Nal]RRRR[Dap]K
modifications: linker (positions not given here) via Trimesoyl; not fully specified (C-terminus, bridges); printed as bicyclo[Tm-(D-Phe-3,4-diFPhe-D-Thr-Pip-Nal-Arg-Ala-D-Phe)-Dap-(Phe-Nal-Arg-Arg-Arg-Arg-Dap)]-Lys
B5: peptide 34 (Table 18) (peptide)
peptide: Trimesoyl-[dV][Phe(4-F)][dT][Pip′][2Nal]RA[dA][Dap]F[2Nal]RRRR[Dap]K
modifications: linker (positions not given here) via Trimesoyl; not fully specified (C-terminus, bridges); printed as bicyclo[Tm-(D-Val-4-Fpa-D-Thr-Pip-Nal-Arg-Ala-D-Ala)-Dap-(Phe-Nal-Arg-Arg-Arg-Arg-Dap)]-Lys
B6: peptide 30 (Table 18) (peptide)
peptide: Trimesoyl-[dF][Phe(4-Cl)][dT][Pip′][2Nal]RA[dF][Dap]F[2Nal]RRRR[Dap]K
modifications: linker (positions not given here) via Trimesoyl; not fully specified (C-terminus, bridges); printed as bicyclo[Tm-(D-Phe-4-ClPhe-D-Thr-Pip-Nal-Arg-Ala-D-Phe)-Dap-(Phe-Nal-Arg-Arg-Arg-Arg-Dap)]-Lys
B7: peptide 28 (Table 18) (peptide)
peptide: Trimesoyl-[dF]F[dT][Pip′][2Nal]RA[dF][Dap]F[2Nal]RRRR[Dap]K
modifications: linker (positions not given here) via Trimesoyl; not fully specified (some residues, C-terminus, bridges); printed as bicyclo[Tm-(D-Phe-Phe-D-Thr-Pip-Nal-Arg-Ala-D-Phe)-Dap-(Phe-Nal-Arg-Arg-Arg-Arg-Dap)]-Lys

What was measured:
[1] = molecular target: Pin1 (Example 6, construct not stated) (human) (UniProt Q13526); assay: fluorescence anisotropy
[2] = molecular target: Pin1 (Example 6, construct not stated) (human) (UniProt Q13526); assay: cell-based or functional assay
[3] = molecular target: Pin1 (Example 6, construct not stated) (human) (UniProt Q13526); assay: FA competition; competitor probe FITC-labeled peptide 1 (100 nM), Pin1 400 nM
[4] = molecular target: bovine serum albumin (bovine) (UniProt P02769); assay: binding test against a panel of arbitrarily selected proteins
Chain of bovine serum albumin (bovine) (P02769 25-607 limits assumed): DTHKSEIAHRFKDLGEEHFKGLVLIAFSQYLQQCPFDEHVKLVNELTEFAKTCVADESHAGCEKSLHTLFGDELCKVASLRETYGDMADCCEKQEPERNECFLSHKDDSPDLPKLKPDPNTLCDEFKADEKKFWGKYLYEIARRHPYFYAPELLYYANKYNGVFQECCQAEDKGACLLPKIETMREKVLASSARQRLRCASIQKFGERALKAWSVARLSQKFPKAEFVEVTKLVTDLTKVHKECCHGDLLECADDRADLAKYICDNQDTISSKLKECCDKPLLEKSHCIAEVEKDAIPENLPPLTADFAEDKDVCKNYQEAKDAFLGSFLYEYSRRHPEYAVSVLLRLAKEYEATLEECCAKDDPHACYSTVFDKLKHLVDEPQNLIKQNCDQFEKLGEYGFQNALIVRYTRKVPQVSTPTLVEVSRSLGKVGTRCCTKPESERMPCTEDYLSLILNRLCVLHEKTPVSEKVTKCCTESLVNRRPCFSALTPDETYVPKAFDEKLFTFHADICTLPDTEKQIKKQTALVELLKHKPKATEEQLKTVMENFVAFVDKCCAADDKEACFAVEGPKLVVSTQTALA

Binder | Kd [1] [nM] | other results
B1 | 1780 | –
B2 | 1680 | –
B3 | 120 | IC50 of HeLa cell growth (MTT assay) [2]: 1000 nM; IC50 of Pin1 catalytic activity toward Suc-Ala-Glu-Pro-Phe-pNA [2]: 170 nM; PML protein level in HeLa cells (western blot), 0.2 µM inhibitor [2]: 1.8 fold; PML protein level in HeLa cells (western blot), plateau at ˜1 µM inhibitor [2]: 3.3 fold; IC50 [3]: 190 nM; Kd [4]: 20000 nM
B4 | 410 | –
B5 | 1070 | –
B6 | 780 | –
B7 | 1260 | –
